# B1: CBL peptide 538-553 (E3 ubiquitin-protein ligase CBL), 16-mer library wild type / YES SH3 (YES1 SH3 domain, residues 90-152) (parent complex)
# chain 1: TLRDLPPPPPPDRPYS
# chain 2: not shown
# B2: PAIP1 peptide 124-139 (Polyadenylate-binding protein-interacting protein 1), 16-mer library wild type / PABPC1 PABC (PABPC1 PABC domain, residues 544-623) (parent complex)
# chain 1: LMSKLSVNAPEFYPSG
# chain 2: PLTASMLASAPPQEQKQMLGERLFPLIQAMHPTLAGKITGMLLEIDNSELLHMLESPESLRSKVDEAVAVLQAHQAKEAA
# Variants of: B1
# Assay: proteomic peptide phage display deep mutational scan (ProP-PD DMS): M13 P8 16-mer library selected against immobilised GST-tagged bait for four days (rounds), NGS of the eluted pools per day and pseudo-replica; bait immobilised on MaxiSorp plates (10 µg), library pre-cleared on GST, 2 h binding at 4 °C, five washes; one round per day, days 1-4; value from days 2 and 3
row,Variant,screen value
1,chain 1 D4V,"0.00269 average fractional NGS count over selection days 2 and 3 (reads of this peptide / all reads for the bait, averaged over …"
2,chain 1 D4L,"0.000198 average fractional NGS count over selection days 2 and 3 (reads of this peptide / all reads for the bait, averaged over …"
3,chain 1 D4N,"0.00132 average fractional NGS count over selection days 2 and 3 (reads of this peptide / all reads for the bait, averaged over …"
4,chain 1 P8I,"0.000407 average fractional NGS count over selection days 2 and 3 (reads of this peptide / all reads for the bait, averaged over …"
5,chain 1 P8A,"9.08e-05 average fractional NGS count over selection days 2 and 3 (reads of this peptide / all reads for the bait, averaged over …"
6,chain 1 P8L,"0.000561 average fractional NGS count over selection days 2 and 3 (reads of this peptide / all reads for the bait, averaged over …"
7,chain 1 P10V,"0.00306 average fractional NGS count over selection days 2 and 3 (reads of this peptide / all reads for the bait, averaged over …"
8,chain 1 P10T,"0.00196 average fractional NGS count over selection days 2 and 3 (reads of this peptide / all reads for the bait, averaged over …"
9,chain 1 S16E,"0.000858 average fractional NGS count over selection days 2 and 3 (reads of this peptide / all reads for the bait, averaged over …"
10,chain 1 S16F,"0.00399 average fractional NGS count over selection days 2 and 3 (reads of this peptide / all reads for the bait, averaged over …"
11,chain 1 S16R,"0.000301 average fractional NGS count over selection days 2 and 3 (reads of this peptide / all reads for the bait, averaged over …"
12,chain 1 S16T,"0.000743 average fractional NGS count over selection days 2 and 3 (reads of this peptide / all reads for the bait, averaged over …"
13,chain 1 S16W,"0.00897 average fractional NGS count over selection days 2 and 3 (reads of this peptide / all reads for the bait, averaged over …"
14,chain 1 S16V,"0.00134 average fractional NGS count over selection days 2 and 3 (reads of this peptide / all reads for the bait, averaged over …"
15,chain 1 S16G,"0.000561 average fractional NGS count over selection days 2 and 3 (reads of this peptide / all reads for the bait, averaged over …"
16,chain 1 D12S,"0.000329 average fractional NGS count over selection days 2 and 3 (reads of this peptide / all reads for the bait, averaged over …"
17,chain 1 D12I,"0.00442 average fractional NGS count over selection days 2 and 3 (reads of this peptide / all reads for the bait, averaged over …"
18,chain 1 D12Y,"0.00156 average fractional NGS count over selection days 2 and 3 (reads of this peptide / all reads for the bait, averaged over …"
19,chain 1 D12N,"0.000102 average fractional NGS count over selection days 2 and 3 (reads of this peptide / all reads for the bait, averaged over …"
20,chain 1 R3E,"0.000121 average fractional NGS count over selection days 2 and 3 (reads of this peptide / all reads for the bait, averaged over …"

row,Variant,screen value
1,chain 1 R3H,"0.000385 average fractional NGS count over selection days 2 and 3 (reads of this peptide / all reads for the bait, averaged over …"
2,chain 1 R3Y,"0.000386 average fractional NGS count over selection days 2 and 3 (reads of this peptide / all reads for the bait, averaged over …"
3,chain 1 P9R,"8.13e-05 average fractional NGS count over selection days 2 and 3 (reads of this peptide / all reads for the bait, averaged over …"
4,chain 1 P9T,"0.000558 average fractional NGS count over selection days 2 and 3 (reads of this peptide / all reads for the bait, averaged over …"
5,chain 1 L5V,"6.39e-05 average fractional NGS count over selection days 2 and 3 (reads of this peptide / all reads for the bait, averaged over …"
6,chain 1 L5Q,"0.000137 average fractional NGS count over selection days 2 and 3 (reads of this peptide / all reads for the bait, averaged over …"
7,chain 1 Y15K,"0.000227 average fractional NGS count over selection days 2 and 3 (reads of this peptide / all reads for the bait, averaged over …"
8,chain 1 Y15S,"0.000415 average fractional NGS count over selection days 2 and 3 (reads of this peptide / all reads for the bait, averaged over …"
9,chain 1 Y15E,"9.17e-05 average fractional NGS count over selection days 2 and 3 (reads of this peptide / all reads for the bait, averaged over …"
10,chain 1 Y15G,"0.000388 average fractional NGS count over selection days 2 and 3 (reads of this peptide / all reads for the bait, averaged over …"
11,chain 1 Y15A,"0.00482 average fractional NGS count over selection days 2 and 3 (reads of this peptide / all reads for the bait, averaged over …"
12,chain 1 Y15H,"0.0004 average fractional NGS count over selection days 2 and 3 (reads of this peptide / all reads for the bait, averaged over …"
13,chain 1 P14H,"0.00144 average fractional NGS count over selection days 2 and 3 (reads of this peptide / all reads for the bait, averaged over …"
14,chain 1 P14M,"0.00532 average fractional NGS count over selection days 2 and 3 (reads of this peptide / all reads for the bait, averaged over …"
15,chain 1 P14T,"0.0012 average fractional NGS count over selection days 2 and 3 (reads of this peptide / all reads for the bait, averaged over …"
16,chain 1 P14A,"0.000568 average fractional NGS count over selection days 2 and 3 (reads of this peptide / all reads for the bait, averaged over …"
17,chain 1 P14Y,"0.00118 average fractional NGS count over selection days 2 and 3 (reads of this peptide / all reads for the bait, averaged over …"
18,chain 1 P11N,"9.7e-05 average fractional NGS count over selection days 2 and 3 (reads of this peptide / all reads for the bait, averaged over …"
19,chain 1 P11M,"0.000374 average fractional NGS count over selection days 2 and 3 (reads of this peptide / all reads for the bait, averaged over …"
20,chain 1 P11L,"0.000447 average fractional NGS count over selection days 2 and 3 (reads of this peptide / all reads for the bait, averaged over …"

row,Variant,screen value
1,chain 1 P11I,"0.00017 average fractional NGS count over selection days 2 and 3 (reads of this peptide / all reads for the bait, averaged over …"
2,chain 1 P7F,"0.000149 average fractional NGS count over selection days 2 and 3 (reads of this peptide / all reads for the bait, averaged over …"
3,chain 1 P7E,"0.00022 average fractional NGS count over selection days 2 and 3 (reads of this peptide / all reads for the bait, averaged over …"
4,chain 1 P7Y,"0.000234 average fractional NGS count over selection days 2 and 3 (reads of this peptide / all reads for the bait, averaged over …"
5,chain 1 P7S,"0.00158 average fractional NGS count over selection days 2 and 3 (reads of this peptide / all reads for the bait, averaged over …"
6,chain 1 P7Q,"0.000151 average fractional NGS count over selection days 2 and 3 (reads of this peptide / all reads for the bait, averaged over …"
7,chain 1 L2K,"0.0014 average fractional NGS count over selection days 2 and 3 (reads of this peptide / all reads for the bait, averaged over …"
8,chain 1 L2Q,"0.00095 average fractional NGS count over selection days 2 and 3 (reads of this peptide / all reads for the bait, averaged over …"
9,chain 1 L2G,"0.000674 average fractional NGS count over selection days 2 and 3 (reads of this peptide / all reads for the bait, averaged over …"
10,chain 1 L2Y,"0.00467 average fractional NGS count over selection days 2 and 3 (reads of this peptide / all reads for the bait, averaged over …"
11,chain 1 L2V,"0.00022 average fractional NGS count over selection days 2 and 3 (reads of this peptide / all reads for the bait, averaged over …"
12,chain 1 R13M,"0.000309 average fractional NGS count over selection days 2 and 3 (reads of this peptide / all reads for the bait, averaged over …"
13,chain 1 R13L,"0.00161 average fractional NGS count over selection days 2 and 3 (reads of this peptide / all reads for the bait, averaged over …"
14,chain 1 R13G,"3.78e-05 average fractional NGS count over selection days 2 and 3 (reads of this peptide / all reads for the bait, averaged over …"
15,chain 1 R13Q,"0.000164 average fractional NGS count over selection days 2 and 3 (reads of this peptide / all reads for the bait, averaged over …"
16,chain 1 R13Y,"0.000779 average fractional NGS count over selection days 2 and 3 (reads of this peptide / all reads for the bait, averaged over …"
17,chain 1 R13N,"0.000641 average fractional NGS count over selection days 2 and 3 (reads of this peptide / all reads for the bait, averaged over …"
18,chain 1 P6M,"0.000156 average fractional NGS count over selection days 2 and 3 (reads of this peptide / all reads for the bait, averaged over …"

# Variants of: B2
# Assay: as above
row,Variant,screen value
1,chain 1 LMSKLSVNAPDFYPSG,"0.000612 average fractional NGS count over selection days 2 and 3 (reads of this peptide / all reads for the bait, averaged over …"
2,chain 1 LMSKWSVNAPEFYPSG,"0.000754 average fractional NGS count over selection days 2 and 3 (reads of this peptide / all reads for the bait, averaged over …"
3,chain 1 LMSKLSVNAPEFYQSG,"0.000256 average fractional NGS count over selection days 2 and 3 (reads of this peptide / all reads for the bait, averaged over …"
4,chain 1 LMSKLSVNAPEYYPSG,"0.00127 average fractional NGS count over selection days 2 and 3 (reads of this peptide / all reads for the bait, averaged over …"
5,chain 1 LMSKLSVNAPEFYPSV,"0.0229 average fractional NGS count over selection days 2 and 3 (reads of this peptide / all reads for the bait, averaged over …"
6,chain 1 LMSKLSVNAPEFYPSN,"0.000134 average fractional NGS count over selection days 2 and 3 (reads of this peptide / all reads for the bait, averaged over …"
7,chain 1 LMSKLSVNAPEFYPSY,"0.00314 average fractional NGS count over selection days 2 and 3 (reads of this peptide / all reads for the bait, averaged over …"
8,chain 1 LMWKLSVNAPEFYPSG,"0.00081 average fractional NGS count over selection days 2 and 3 (reads of this peptide / all reads for the bait, averaged over …"
9,chain 1 LMSKLSANAPEFYPSG,"0.00224 average fractional NGS count over selection days 2 and 3 (reads of this peptide / all reads for the bait, averaged over …"
10,chain 1 LMSDLSVNAPEFYPSG,"0.000813 average fractional NGS count over selection days 2 and 3 (reads of this peptide / all reads for the bait, averaged over …"
11,chain 1 LMSKLSVNAPEFAPSG,"0.001 average fractional NGS count over selection days 2 and 3 (reads of this peptide / all reads for the bait, averaged over …"
12,chain 1 LKSKLSVNAPEFYPSG,"0.000358 average fractional NGS count over selection days 2 and 3 (reads of this peptide / all reads for the bait, averaged over …"
13,chain 1 LMSKLSVEAPEFYPSG,"0.000334 average fractional NGS count over selection days 2 and 3 (reads of this peptide / all reads for the bait, averaged over …"
